Reference: patent US20230048960A1 (University of Washington, published 2023)
Square brackets hold non-standard residues; d marks the D form.

B1: AP505m (peptide)
peptide: Ac-RGN[dW]C[dE]S[dK]MNEYYGW[dM]L[dM]L[dT]MGR-NH2
modifications: not fully specified (residue 5); printed as RGNwCeSkMNEYYGWmLmLtMGR
B2: AP505d (peptide)
peptide: Ac-RGN[dW]C[dE]S[dK]MNEYYGW[dM]L[dM]L[dT]MGR-NH2
modifications: not fully specified (residue 5); printed as RGNwCeSkMNEYYGWmLmLtMGR; also: disulfide-linked homodimer via Cys5
B3: AP506m (peptide)
peptide: Ac-[dR]G[dN]W[dN]E[dS]K[dM][dN][dE][dY][dY]G[dW]M[dL]M[dC]T[dM]G[dR]-NH2
SMILES: CSCC[C@H](NC(=O)[C@@H](Cc1c[nH]c2ccccc12)NC(=O)CNC(=O)[C@@H](Cc1ccc(O)cc1)NC(=O)[C@@H](Cc1ccc(O)cc1)NC(=O)[C@@H](CCC(=O)O)NC(=O)[C@@H](CC(N)=O)NC(=O)[C@@H](CCSC)NC(=O)[C@H](CCCCN)NC(=O)[C@@H](CO)NC(=O)[C@H](CCC(=O)O)NC(=O)[C@@H](CC(N)=O)NC(=O)[C@H](Cc1c[nH]c2ccccc12)NC(=O)[C@@H](CC(N)=O)NC(=O)CNC(=O)[C@@H](CCCNC(=N)N)NC(C)=O)C(=O)N[C@H](CC(C)C)C(=O)N[C@@H](CCSC)C(=O)N[C@H](CS)C(=O)N[C@H](C(=O)N[C@H](CCSC)C(=O)NCC(=O)N[C@H](CCCNC(=N)N)C(N)=O)[C@@H](C)O
B4: AP506d (peptide)
peptide: Ac-[dR]G[dN]W[dN]E[dS]K[dM][dN][dE][dY][dY]G[dW]M[dL]M[dC]T[dM]G[dR]-NH2
modifications: also: disulfide-linked homodimer (Cys19 to Cys19 of other copy), disulfide at 19, other end not in the chain
B5: AP516m (peptide)
peptide: Ac-[dR]G[dE]M[dN]Y[dF]W[dM][dN][dE][dY][dY]G[dW]T[dM]N[dC]K[dM]G[dR]-NH2
SMILES: CSCC[C@H](NC(=O)[C@@H](CCC(=O)O)NC(=O)CNC(=O)[C@@H](CCCNC(=N)N)NC(C)=O)C(=O)N[C@H](CC(N)=O)C(=O)N[C@@H](Cc1ccc(O)cc1)C(=O)N[C@H](Cc1ccccc1)C(=O)N[C@@H](Cc1c[nH]c2ccccc12)C(=O)N[C@H](CCSC)C(=O)N[C@H](CC(N)=O)C(=O)N[C@H](CCC(=O)O)C(=O)N[C@H](Cc1ccc(O)cc1)C(=O)N[C@H](Cc1ccc(O)cc1)C(=O)NCC(=O)N[C@H](Cc1c[nH]c2ccccc12)C(=O)N[C@H](C(=O)N[C@H](CCSC)C(=O)N[C@@H](CC(N)=O)C(=O)N[C@H](CS)C(=O)N[C@@H](CCCCN)C(=O)N[C@H](CCSC)C(=O)NCC(=O)N[C@H](CCCNC(=N)N)C(N)=O)[C@@H](C)O
B6: AP516d (peptide)
peptide: Ac-[dR]G[dE]M[dN]Y[dF]W[dM][dN][dE][dY][dY]G[dW]T[dM]N[dC]K[dM]G[dR]-NH2
modifications: also: disulfide-linked homodimer (Cys19 to Cys19 of other copy), disulfide at 19, other end not in the chain
B7: AP520m (peptide)
peptide: Ac-RGE[dM]N[dL]S[dW]MNEYSGW[dT]M[dN]C[dK]MGR-NH2
SMILES: CSCC[C@H](NC(=O)[C@@H](CCCCN)NC(=O)[C@H](CS)NC(=O)[C@@H](CC(N)=O)NC(=O)[C@H](CCSC)NC(=O)[C@H](NC(=O)[C@H](Cc1c[nH]c2ccccc12)NC(=O)CNC(=O)[C@H](CO)NC(=O)[C@H](Cc1ccc(O)cc1)NC(=O)[C@H](CCC(=O)O)NC(=O)[C@H](CC(N)=O)NC(=O)[C@H](CCSC)NC(=O)[C@@H](Cc1c[nH]c2ccccc12)NC(=O)[C@H](CO)NC(=O)[C@@H](CC(C)C)NC(=O)[C@H](CC(N)=O)NC(=O)[C@@H](CCSC)NC(=O)[C@H](CCC(=O)O)NC(=O)CNC(=O)[C@H](CCCNC(=N)N)NC(C)=O)[C@H](C)O)C(=O)NCC(=O)N[C@@H](CCCNC(=N)N)C(N)=O
B8: AP520d (peptide)
peptide: Ac-RGE[dM]N[dL]S[dW]MNEYSGW[dT]M[dN]C[dK]MGR-NH2
modifications: also: disulfide-linked homodimer via Cys19
B9: AP521m (peptide)
peptide: Ac-RGE[dC]N[dL]S[dW]MNEYSGW[dT]M[dN]M[dK]MGR-NH2
SMILES: CSCC[C@H](NC(=O)[C@@H](CCCCN)NC(=O)[C@H](CCSC)NC(=O)[C@@H](CC(N)=O)NC(=O)[C@H](CCSC)NC(=O)[C@H](NC(=O)[C@H](Cc1c[nH]c2ccccc12)NC(=O)CNC(=O)[C@H](CO)NC(=O)[C@H](Cc1ccc(O)cc1)NC(=O)[C@H](CCC(=O)O)NC(=O)[C@H](CC(N)=O)NC(=O)[C@H](CCSC)NC(=O)[C@@H](Cc1c[nH]c2ccccc12)NC(=O)[C@H](CO)NC(=O)[C@@H](CC(C)C)NC(=O)[C@H](CC(N)=O)NC(=O)[C@@H](CS)NC(=O)[C@H](CCC(=O)O)NC(=O)CNC(=O)[C@H](CCCNC(=N)N)NC(C)=O)[C@H](C)O)C(=O)NCC(=O)N[C@@H](CCCNC(=N)N)C(N)=O
B10: AP500m (peptide)
peptide: Ac-RGN[dW]N[dE]S[dK]MNEYSGW[dM]L[dM]C[dT]MGR-NH2
SMILES: CSCC[C@H](NC(=O)[C@@H](CCCCN)NC(=O)[C@H](CO)NC(=O)[C@@H](CCC(=O)O)NC(=O)[C@H](CC(N)=O)NC(=O)[C@@H](Cc1c[nH]c2ccccc12)NC(=O)[C@H](CC(N)=O)NC(=O)CNC(=O)[C@H](CCCNC(=N)N)NC(C)=O)C(=O)N[C@@H](CC(N)=O)C(=O)N[C@@H](CCC(=O)O)C(=O)N[C@@H](Cc1ccc(O)cc1)C(=O)N[C@@H](CO)C(=O)NCC(=O)N[C@@H](Cc1c[nH]c2ccccc12)C(=O)N[C@H](CCSC)C(=O)N[C@@H](CC(C)C)C(=O)N[C@H](CCSC)C(=O)N[C@@H](CS)C(=O)N[C@@H](C(=O)N[C@@H](CCSC)C(=O)NCC(=O)N[C@@H](CCCNC(=N)N)C(N)=O)[C@H](C)O

What follows are binders tested against Aβ42 (UniProt P05067 672-713) (assay: cell-based or functional assay).
Aβ42, sequence (P05067 672-713 limits assumed): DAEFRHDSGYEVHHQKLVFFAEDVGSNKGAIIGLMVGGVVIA
B1 was tested, and the “% inhibition of fibril formation (ThT), AP:Aβ42 1:1” value was 26.8%, the “% inhibition of fibril formation (ThT), AP:Aβ42 1:10” value was 16.4% and the “% inhibition of fibril formation (ThT), AP:Aβ42 1:100” value (“% inhibition … AP:Aβ42 1:100” below) was 0%. With B2 the “% inhibition of fibril formation (ThT), AP:Aβ42 1:1” value was 100%, the “% inhibition of fibril formation (ThT), AP:Aβ42 1:10” value was 79.5% and the “% inhibition … AP:Aβ42 1:100” value was 51.4%. B3 was tested, and the “% inhibition of fibril formation (ThT), AP:Aβ42 1:1” value was 67.6%, the “% inhibition of fibril formation (ThT), AP:Aβ42 1:10” value was 0% and the “% inhibition … AP:Aβ42 1:100” value was 0%. For B4, the “% inhibition of fibril formation (ThT), AP:Aβ42 1:1” value was 100%, the “% inhibition of fibril formation (ThT), AP:Aβ42 1:10” value was 100% and the “% inhibition … AP:Aβ42 1:100” value was 49.1%. B5 was tested, and the “% inhibition of fibril formation (ThT), AP:Aβ42 1:1” value was 76.6%, the “% inhibition of fibril formation (ThT), AP:Aβ42 1:10” value was 56.4% and the “% inhibition … AP:Aβ42 1:100” value was 0%. For B6, the “% inhibition of fibril formation (ThT), AP:Aβ42 1:1” value was 100%, the “% inhibition of fibril formation (ThT), AP:Aβ42 1:10” value was 98.2% and the “% inhibition … AP:Aβ42 1:100” value was 51.3%. In the case of B7, the “% inhibition of fibril formation (ThT), AP:Aβ42 1:1” value is reported as 47%, the “% inhibition of fibril formation (ThT), AP:Aβ42 1:10” value is reported as 33.1% and the “% inhibition … AP:Aβ42 1:100” value is reported as 0%. In the case of B8, the “% inhibition of fibril formation (ThT), AP:Aβ42 1:1” value is reported as 100%, the “% inhibition of fibril formation (ThT), AP:Aβ42 1:10” value is reported as 91.2% and the “% inhibition … AP:Aβ42 1:100” value is reported as 45.3%. In the case of B9, the “% inhibition of fibril formation (ThT), AP:Aβ42 1:1” value is reported as 74%, the “% inhibition of fibril formation (ThT), AP:Aβ42 1:10” value is reported as 34.6% and the “% inhibition … AP:Aβ42 1:100” value is reported as 0%. With B10 the “% inhibition of fibril formation (ThT), AP:Aβ42 1:1” value was 76.6%, the “% inhibition of fibril formation (ThT), AP:Aβ42 1:10” value was 9% and the “% inhibition … AP:Aβ42 1:100” value was 0%.
